The results in this text go back to patent US20210277147A1 (SINO SWED TONGKANG BIO TECH SHENZHEN, published 2021).

Test [1] addresses T1, recombinant human thymidine kinase 1 (hTK1) protein (human, UniProt P04183 1-234, limits assumed).
T1 construct: ELISA coating antigen at 0.5 ug/ml, 100 ul per well (50 ng/well); also called recombinant hTK1 antigen
T1 sequence (looked up): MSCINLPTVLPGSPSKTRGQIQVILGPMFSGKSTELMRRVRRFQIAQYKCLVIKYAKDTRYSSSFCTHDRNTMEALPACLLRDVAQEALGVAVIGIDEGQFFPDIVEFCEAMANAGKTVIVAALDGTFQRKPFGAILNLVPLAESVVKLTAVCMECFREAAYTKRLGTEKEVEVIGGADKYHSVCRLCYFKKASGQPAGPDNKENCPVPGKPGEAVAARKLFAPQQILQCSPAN
In words: indirect ELISA on coated hTK1, anti-full-length IgY biotin detection. As for the experimental part: (§1) The recombinant IgY scFv antibody contains not only the hypervariable region that binds to hTK1, but also the highly conserved framework region (FR). In this embodiment, the HA 9-peptide tag of human influenza hemagglutinin was added. Therefore, when detecting recombinant single-chain antibodies by indirect ELISA, biotin-labeled anti-full-length IgY secondary antibody and horseradish peroxidase-labeled anti-human influenza hemagglutinin HA 9-peptide monoclonal antibodies were used as labeled antibodies, to detect recombinant anti-hTK1 single-chain antibody expressed in CHO cells. The supernatant of the transfected cells was collected and the expression level of recombinant scFv antibody was detected by ELISA experiment. The specific method is as follows:
(§2) The OD value of the CHO cell supernatant transfected with the scFv antibody gene is 6.6 times that of the CHO cell supernatant not transfected, and the ratio of the recombinant hTK1 antigen to the negative antigen control is 6.9.
For orientation: In an ELISA, binding on a coated surface is turned into a signal by an enzyme label.

For test [2], the target named is T1, recombinant human thymidine kinase 1 …. Nature of the test: indirect ELISA on coated hTK1, HRP-labeled anti-HA monoclonal antibody detection. As for the experimental part:
as §1, §2

For test [3] the target is unchanged. In words: indirect ELISA, hTK1-coated wells against coating-solution wells, anti-full-length IgY biotin detection. How it is done: as §1, §2
For test [4] the target is unchanged. In words: indirect ELISA, hTK1-coated wells against coating-solution wells, HRP-labeled anti-HA monoclonal antibody detection. As for the experimental part:
as §1, §2

B1: recombinant anti-hTK1 chicken IgY single-chain variable fragment (scFv) antibody expressed in CHO cells (scFv)
scFv: MAAVTLDESGGGLQTPGGALSLVCKGSGFTFSSDAMGWMRQAPGKGLEFVARINSAGSYTDYGSAVDGRATISRDNGQSTVRLQLNNLRAEDTSTYFCAKSPGGFSCAYGLCWDAAGSIDAWGHGTEVIVSSGGGSGGGGSGGGGSGGGSALTQPSSVSANLGGTVKITCSGGANYYGWFQQKTPGSAPVSLIYESTKRPSNIPSRFSGSKSGSTGTLTITGVRADDEAVYYCGTYDSSTHTSIFGAGTTLYPYDVPDYA
notes: Tested as unpurified supernatant of transiently transfected CHO cells; also called recombinant IgY scFv antibody; recombinant anti-hTK1 single-chain antibody
B1: the “OD ratio to the CHO cell supernatant not transfected” value in test [1] was 6.6 fold. Further, in test [2], the “OD ratio to the untransfected CHO cell supernatant” value was 2.6 fold. Also, the “ratio of the recombinant hTK1 antigen to the negative antigen control” value in test [3] is 6.9 ratio; in test [4] it was 0.287 ratio.
